Measurements taken from article doi:10.1101/2024.03.07.581839 (bioRxiv, 2024).

Target: the molecule itself
Experiment: cryo-EM structure

B1: human GPR156 (receptor)
chain: MEPEINCSELCDSFPGQELDRRPLHDLCKTTITSSHHSSKTISSLSPVLLGIVWTFLSCGLLLILFFLAFTIHCRKNRIVKMSSPNLNIVTLLGSCLTYSSAYLFGIQDVLVGSSMETLIQTRLSMLCIGTSLVFGPILGKSWRLYKVFTQRVPDKRVIIKDLQLLGLVAALLMADVILLMTWVLTDPIQCLQILSVSMTVTGKDVSCTSTSTHFCASRYSDVWIALIWGCKGLLLLYGAYLAGLTGHVSSPPVNQSLTIMVGVNLLVLAAGLLFVVTRYLHSWPNLVFGLTSGGIFVCTTTINCFIFIPQLKQWKAFEEENQTIRRMAKYFSTPNKSFHTQYGEEENCHPRGEKSSMERLLTEKNAVIESLQEQVNNAKEKIVRLMSAECTYDLPEGAAPPASSPNKDVQAVASVHTLAAAQGPSGHLSDFQNDPGMAARDSQCTSGPSSYAQSLEGPGKDSSFSPGKEEKISDSKDFSDHLDSGCSQKPWTEQSLGPERGDQVPMNPSQSLLPERGGSDPQRQRHLENSEEPPERRSRVSSVIREKLQEVLQDLGLGPEASLSTAPSCHQQTWKNSAAFSPQKMPLSKELGFSPYMVRRRRAAQRARSHFPGSAPSSVGHRANRTVPGAHSRLHVQNGDSPSLAPQTTDSRVRRPSSRKPSLPSDPQDRPGTLEGSKQSQTEPEGARGSKAAFLRQPSGSGRAPSPAAPCLSKASPDLPEQWQLWPPVPSGCASLSSQHSYFDTESSSSDEFFCRCHRPYCEICFQSSSDSSDSGTSDTDPEPTGGLASWEKLWARSKPIVNFKDDLKPTLV
- stoichiometry N: 2
